B1: monoclonal antibody specific for Pro-C3 (monoclonal antibody NB61N-62) (antibody, V domains shown)
VH: EVQLQQSGPEVLKPGASVKMSCKASGYTFINYVIHWLKQKAGQGPEWIGYMNPYNDVPKNNAKFRGKARLTSDRSSTTAYMELNSLTSEDSAVYYCARGGFFGPLSYWGQGTLVTVSA
VL: DVLMTQTPLSLSVSLGDQASISCRSSQNIVYSNGDTYFEWYLQKPGQSPKLLIYKVSQRFSGVPDRFSGSGSGTDFTLKISRVETEDLGVYYCFQGAHDPPAFGGGTKLELKR
notes: Mouse IgG2A / kappa; also called PRO-C3 antibody
B2: monoclonal antibody specific for Pro-C6 (monoclonal antibody 10A3) (antibody, mouse IgG1, kappa, V domains shown)
VH: EVQLQQSGPVMVKPGTSVKTSCKASGYTFTDFNMNWVKQSHGKSLEWIGAINPHNGATSYNQKFSGKATLTVDKSSSTAYMELNSLTSDDSAVYYCARWGNGKNSWGQGTTLTVSS
VL: DVVMTQTPLSLPVNLGDQASISCRSSQRIVHSNGITFLEWYLQKPGQSPKLLIYRVSNRFSGVPDRFSGSGSGTDFTLKISRVEAEDLGLYYCFQGSHVPLTFGAGTRLELKR
notes: Mouse IgG1 / kappa from a hybridoma; the antibodies were purified on an IgG column afterwards; also called PRO-C6 antibody

Legend:
[1] = target: T1, CPTGPQNYSP, C-terminal neo-epitope sequence of the α1 chain PIIINP (free calibrator peptide); test: hybridoma screening, indirect ELISA on streptavidin-coated plates with the free peptide as calibrator
T1 construct: also called PRO-C3
T1 peptide: CPTGPQNYSP
Method: A monoclonal antibody specific for Pro-C3 was developed as described in WO 2014/170312 (Nordic Bioscience, incorporated herein by reference) using sequence 145′-[…]-′153 (SEQ ID No: 14) of the α1 chain PIIINP as an immunogenic peptide. Briefly, generation of monoclonal antibodies was initiated by subcutaneous immunization of 4-5 week old Balb/C mice with 200 μl emulsified antigen and 50 μg PIIINP neo-epitope C-terminus sequence (OVA-CGG-[…] (SEQ ID No: 32)) using Freund's incomplete adjuvant. The immunizations were repeated every 2 weeks until stable serum titer levels were reached. The spleen cells were fused with SP2/0 myeloma cells to produce hybridoma, and cloned in culture dishes using the semi-medium method. The supernatants were screened for reactivity against calibrator peptide and native material in an indirect ELISA using streptavidin-coated plates. Biotin-CGG-[…] (SEQ ID No: 33) was used as screening peptide, while the free peptide […] (SEQ ID No: 14) was used as calibrator to test for further specificity of clones.

[2] = target: T2, elongated peptide KPGVISVMGTA; test: screening of hybridoma cell lines against peptides
T2 peptide: KPGVISVMGTA
Method: (§1) Mouse spleen cells were fused with SP2/0 myeloma fusion partner cells. The fusion cells were raised in 96-well plates and incubated in the CO2-incubator. Here standard limited dilution was used to promote monoclonal growth. Cell lines specific to the selection peptide and without cross-reactivity to either elongated peptide ([…] (SEQ ID No: 2), Chinese Peptide Company, China) or truncated peptide ([…] (SEQ ID No: 3), American Peptide Company, USA) were selected and sub-cloned. At last the antibodies were purified using an IgG column.

[3] = target: T3, KPGVISVMGT, last 10 amino acids of the type VI collagen α3 chain (selection / immunogenic peptide); test: screening of hybridoma cell lines against peptides
T3 construct: also called PRO-C6
T3 peptide: KPGVISVMGT
Method: as §1

[4] = target: T4, truncated peptide KPGVISVMG; test: screening of hybridoma cell lines against peptides
T4 peptide: KPGVISVMG
Method: as §1

Binder	binding result [1]	binding result [2]	binding result [3]	binding result [4]
B1	binds			
B2		no binding	binds	no binding

— patent US20220317133A1 (NORDIC BIOSCIENCE A S, published 2022)
